System: HEK293FT cells transfected with TF library
Experiment: Screening of TF condensates based on fluorescent puncta
Assay type: cell-based
Details: Figure 1B numerical data; TF library screen, one value per transcriptional factor
How it was run: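 TF plasmids (final 1.6 μg/ml) reverse-transfected with PEI (4.8 μg/ml) into HEK293FT cells; after 60 h, cells cultured ±glucose for 12 h, fixed in 4% PFA and immunostained for Flag or GAL4 tags with Alexa 488 secondaries. Puncta scored by automated imaging of 50 random fields per well.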

Molecule	Z score of condensed fraction
GATAD1 (protein, UniProt Q8WUU5 1-269, looked up) GATA zinc finger …: MPLGLKPTCSVCKTTSSSMWKKGAQGEILCHHCTGRGGAGSGGAGSGAAGGTGGSGGGGFGAATFASTSATPPQSNGGGGGKQSKQEIHRRSARLRNTKYKSAPAAEKKVSTKGKGRRHIFKLKNPIKAPESVSTIITAESIFYKGVYYQIGDVVSVIDEQDGKPYYAQIRGFIQDQYCEKSAALTWLIPTLSSPRDQFDPASYIIGPEEDLPRKMEYLEFVCHAPSEYFKSRSSPFPTVPTRPEKGYIWTHVGPTPAITIKESVANHL	-0.9628
GCN512 (protein, UniProt Q92830 2-837, looked up) Histone acetyltransferase …: AEPSQAPTPAPAAQPRPLQSPAPAPTPTPAPSPASAPIPTPTPAPAPAPAAAPAGSTGTGGPGVGSGGAGSGGDPARPGLSQQQRASQRKAQVRGLPRAKKLEKLGVFSACKANETCKCNGWKNPKPPTAPRMDLQQPAANLSELCRSCEHPLADHVSHLENVSEDEINRLLGMVVDVENLFMSVHKEEDTDTKQVYFYLFKLLRKCILQMTRPVVEGSLGSPPFEKPNIEQGVLNFVQYKFSHLAPRERQTMFELSKMFLLCLNYWKLETPAQFRQRSQAEDVATYKVNYTRWLCYCHVPQSCDSLPRYETTHVFGRSLLRSIFTVTRRQLLEKFRVEKDKLVPEKRTLILTHFPKFLSMLEEEIYGANSPIWESGFTMPPSEGTQLVPRPASVSAAVVPSTPIFSPSMGGGSNSSLSLDSAGAEPMPGEKRTLPENLTLEDAKRLRVMGDIPMELVNEVMLTITDPAAMLGPETSLLSANAARDETARLEERRGIIEFHVIGNSLTPKANRRVLLWLVGLQNVFSHQLPRMPKEYIARLVFDPKHKTLALIKDGRVIGGICFRMFPTQGFTEIVFCAVTSNEQVKGYGTHLMNHLKEYHIKHNILYFLTYADEYAIGYFKKQGFSKDIKVPKSRYLGYIKDYEGATLMECELNPRIPYTELSHIIKKQKEIIKKLIERKQAQIRKVYPGLSCFKEGVRQIPVESVPGIRETGWKPLGKEKGKELKDPDQLYTTLKNLLAQIKSHPSAWPFMEPVKKSEAPDYYEVIRFPIDLKTMTERLRSRYYVTRKLFVADLQRVIANCREYNPPDSEYCRCASALEKFFYFKLKEGGLIDK	-0.5333
GLI1 (protein, UniProt P08151 1-1106, looked up) Zinc finger protein GLI1: MFNSMTPPPISSYGEPCCLRPLPSQGAPSVGTEGLSGPPFCHQANLMSGPHSYGPARETNSCTEGPLFSSPRSAVKLTKKRALSISPLSDASLDLQTVIRTSPSSLVAFINSRCTSPGGSYGHLSIGTMSPSLGFPAQMNHQKGPSPSFGVQPCGPHDSARGGMIPHPQSRGPFPTCQLKSELDMLVGKCREEPLEGDMSSPNSTGIQDPLLGMLDGREDLEREEKREPESVYETDCRWDGCSQEFDSQEQLVHHINSEHIHGERKEFVCHWGGCSRELRPFKAQYMLVVHMRRHTGEKPHKCTFEGCRKSYSRLENLKTHLRSHTGEKPYMCEHEGCSKAFSNASDRAKHQNRTHSNEKPYVCKLPGCTKRYTDPSSLRKHVKTVHGPDAHVTKRHRGDGPLPRAPSISTVEPKREREGGPIREESRLTVPEGAMKPQPSPGAQSSCSSDHSPAGSAANTDSGVEMTGNAGGSTEDLSSLDEGPCIAGTGLSTLRRLENLRLDQLHQLRPIGTRGLKLPSLSHTGTTVSRRVGPPVSLERRSSSSSSISSAYTVSRRSSLASPFPPGSPPENGASSLPGLMPAQHYLLRARYASARGGGTSPTAASSLDRIGGLPMPPWRSRAEYPGYNPNAGVTRRASDPAQAADRPAPARVQRFKSLGCVHTPPTVAGGGQNFDPYLPTSVYSPQPPSITENAAMDARGLQEEPEVGTSMVGSGLNPYMDFPPTDTLGYGGPEGAAAEPYGARGPGSLPLGPGPPTNYGPNPCPQQASYPDPTQETWGEFPSHSGLYPGPKALGGTYSQCPRLEHYGQVQVKPEQGCPVGSDSTGLAPCLNAHPSEGPPHPQPLFSHYPQPSPPQYLQSGPYTQPPPDYLPSEPRPCLDFDSPTHSTGQLKAQLVCNYVQSQQELLWEGGGREDAPAQEPSYQSPKFLGGSQVSPSRAKAPVNTYGPGFGPNLPNHKSGSYPTPSPCHENFVVGANRASHRAAAPPRLLPPLPTCYGPLKVGGTNPSCGHPEVGRLGGGPALYPPPEGQVCNPLDSLDLDNTQLDFVAILDEPQGLSPPPSHDQRGSSGHTPPPSGPPNMAVGNMSVLLRSLPGETEFLNSSA	1.126
AIRE (protein, UniProt O43918 1-545, looked up) Autoimmune regulator: MATDAALRRLLRLHRTEIAVAVDSAFPLLHALADHDVVPEDKFQETLHLKEKEGCPQAFHALLSWLLTQDSTAILDFWRVLFKDYNLERYGRLQPILDSFPKDVDLSQPRKGRKPPAVPKALVPPPRLPTKRKASEEARAAAPAALTPRGTASPGSQLKAKPPKKPESSAEQQRLPLGNGIQTMSASVQRAVAMSSGDVPGARGAVEGILIQQVFESGGSKKCIQVGGEFYTPSKFEDSGSGKNKARSSSGPKPLVRAKGAQGAAPGGGEARLGQQGSVPAPLALPSDPQLHQKNEDECAVCRDGGELICCDGCPRAFHLACLSPPLREIPSGTWRCSSCLQATVQEVQPRAEEPRPQEPPVETPLPPGLRSAGEEVRGPPGEPLAGMDTTLVYKHLPAPPSAAPLPGLDSSALHPLLCVGPEGQQNLAPGARCGVCGDGTDVLRCTHCAAAFHWRCHFPAGTSRPGTGLRCRSCSGDVTPAPVEGVLAPSPARLAPGPAKDDTASHEPALHRDDLESLLSEHTFDGILQWAIQSMARPAAPFPS	1.2609
GATA2 (protein, UniProt P23769 1-480, looked up) Endothelial transcription …: MEVAPEQPRWMAHPAVLNAQHPDSHHPGLAHNYMEPAQLLPPDEVDVFFNHLDSQGNPYYANPAHARARVSYSPAHARLTGGQMCRPHLLHSPGLPWLDGGKAALSAAAAHHHNPWTVSPFSKTPLHPSAAGGPGGPLSVYPGAGGGSGGGSGSSVASLTPTAAHSGSHLFGFPPTPPKEVSPDPSTTGAASPASSSAGGSAARGEDKDGVKYQVSLTESMKMESGSPLRPGLATMGTQPATHHPIPTYPSYVPAAAHDYSSGLFHPGGFLGGPASSFTPKQRSKARSCSEGRECVNCGATATPLWRRDGTGHYLCNACGLYHKMNGQNRPLIKPKRRLSAARRAGTCCANCQTTTTTLWRRNANGDPVCNACGLYYKLHNVNRPLTMKKEGIQTRNRKMSNKSKKSKKGAECFEELSKCMQEKSSPFSAAALAGHMAPVGHLPPFSHSGHILPTPTPIHPSSSLSFGHPHPSSMVTAMG	-0.7866
GLI4 (protein, UniProt P10075 1-376, looked up) Zinc finger protein GLI4: MAALGDIQESPSVPSPVSLSSPGTPGTQHHEPQLHLHGHQHGSPGSSPKVLSQPSDLDLQDVEEVEIGRDTFWPDSEPKPEQAPRSPGSQAPDEGAGGALRSLLRSLPRRARCSAGFGPESSAERPAGQPPGAVPCAQPRGAWRVTLVQQAAAGPEGAPERAAELGVNFGRSRQGSARGAKPHRCEACGKSFKYNSLLLKHQRIHTGEKPYACHECGKRFRGWSGFIQHHRIHTGEKPYECGQCGRAFSHSSHFTQHLRIHNGEKPYKCGECGQAFSQSSNLVRHQRLHTGEKPYACSQCGKAFIWSSVLIEHQRIHTGEKPYECSDCGKAFRGRSHFFRHLRTHTGEKPFACGACGKAFGQSSQLIQHQRVHYRE	0.3449
GDNF (protein, UniProt P39905 78-211, looked up) Glial cell line-derived …: SPDKQMAVLPRRERNRQAAAANPENSRGKGRRGQRGKNRGCVLTAIHLNVTDLGLGYETKEELIFRYCSGSCDAAETTYDKILKNLSRNRRLVSDKVGQACCRPIAFDDDLSFLDDNLVYHILRKHSAKRCGCI	-0.9627

— article PMC11574045, “A cofactor-induced repressive type of transcription factor condensation can be induced by synthetic peptides to suppress tumorigenesis” (The EMBO Journal, 2024)
